Data: PMC3152652

Key:
[1] = HEK 293 co-expression, Western blot of conditioned medium; conditions: glycan lost; control: wild type
[2] = HEK 293, Western blot densitometry, pro-BNP to BNP conversion; conditions: glycan lost; control: wild type

pro-BNP (pro-B-type natriuretic peptide): T71A
other: proteolytic processing [1]: increases | other: proteolytic processing [2]: increases
